This passage reports Kd results from patent publication US20060264369, “Aptamers to von Willebrand Factor and their use as thrombotic disease therapeutics” (published 2006).

Positions count from the first letter of the chain named.

Series [1] addresses T1, von Willebrand factor A1 domain (Homo sapiens, UniProt P04275 SEQ:13-246). Put plainly: filter; DPBS, 0.1 mg/mL BSA, RT. To be noted: label: 5'-32P. As to the method:
Based on this initial screen, KD's were determined for 16 of the best vWF dependent binding sequences using the dot blot assay. […] A 6 point protein titration of human vWF A1 domain (SEQ ID NO 5) was used in the dot blot assay (333 nM, 100 nM, 33 nM, 10 nM, 3 nM, 0 nM) in 1× DPBS plus 0.1 mg/mL BSA at room temperature for 30 minutes. KD values were calculated by fitting the equation y=(max/(1+K/protein))+yint using KaleidaGraph (KaleidaGraph v. 3.51, Synergy Software).

Series [2] concerns the target T1, von Willebrand factor A1 domain. Put plainly: filter; DPBS, 0.1 mg/mL BSA, 24 C. To be noted: label: 5'-32P. Here is the method: Based on this initial screen, KDs were determined for 12 of the best vWF dependent binding sequences using the dot blot assay and are reported in column 5 of Table 4 below.
Series [3] addresses von Willebrand factor full length (Homo sapiens, UniProt P04275 SEQ:764-2813). Put plainly: filter. Conditions: tags: Calbiochem 681300. Here is the method: For KD determination, chemically synthesized aptamers were purified using denaturing polyacrylamide gel electrophoresis, 5′end labeled with γ-³²P ATP and were tested for direct binding to full length human vWF (Calbiochem Cat.# 681300, La Jolla, Calif.). An 8 point protein titration was used in the dot blot binding assay (100 nM, 30 nM, 10 nM, 3 nM, 1 nM, 300 pM, 100 pM, 0 pM)) in 1× Dulbecco's PBS containing […] (final volume of 50 uL) for 30 minutes at room temperature. KD values were calculated by fitting the equation y=(max/(1+K/protein))+yint using KaleidaGraph (KaleidaGraph v. 3.51, Synergy Software).

B1: AMX203.D6 (mixed)
DNA: GGAGCGCACTCAGCCACAGTTCTGTCGGTGATGAATTAGCGCGAGAGCTGTGGGACGTTTCGACCTCTCTGCTAGC
modifications: 2'-OH purines, deoxy pyrimidines
For B1, the equilibrium dissociation constant (Kd) (in general, the free concentration of one partner at which half of the binding sites on the other are occupied at equilibrium, for simple one-to-one binding) in series [1] was 523 nM.

B2: AMX203.A1 (mixed)
DNA: B1 DNA with A44G
modifications: 2'-OH purines, deoxy pyrimidines
With B2, the Kd in series [1] was 1150 nM.

B3: AMX203.G9 (ARC842) (mixed)
DNA: GGAGCGCACTCAGCCACGGGGTGGGTAGACGGCGGGTATGTGGCTGGTGTCGAAGGGTTTCGACCTCTCTGCTAGC
modifications: 2'-OH purines, deoxy pyrimidines
On to B3, for which the dissociation constant (Kd) in series [1] was determined as 1.3 nM.

B4: AMX201.G1 (ssRNA)
RNA: GGAGCGCACUCAGCCACGCUCGGUGGGGAAAUUUUAGCCUAAUUGGCUACUUGUGCGUUUCGACCUCUCUGCUAGC
modifications: 2'-F pyrimidines
In series [2], B4 came in with a Kd of 190 nM.

B5: AMX205.H9 (mixed)
DNA: GGAGCGCACTCAGCCACGACGGTGATGGATTAGCGCGGTGGAGAAGATGCGCTGTTGTTTCGACCTCTCTGCTAGC
modifications: 2'-OH purines, deoxy pyrimidines
Take B5: in series [1], the Kd was determined as 178 nM.

B6: AMX206.F9 (mixed)
DNA: GGAGCGCACTCAGCCACGGAGCGTCGGTGATGGATTAGCGCGGCTCCGTGGTACACATTTCGACCTCTCTGCTAGC
modifications: 2'-OH purines, deoxy pyrimidines
As for B6, the Kd in series [1] was 139 nM.

B7: AMX205.F9 (mixed)
DNA: B6 DNA with A55G, A57C
modifications: 2'-OH purines, deoxy pyrimidines
Consider B7, for which the Kd in series [1] came to 145 nM.

B8: AMX206.E7 (mixed)
DNA: B6 DNA with A57C
modifications: 2'-OH purines, deoxy pyrimidines
In the case of B8, the Kd in series [1] came to 151 nM.

B9: AMX206.H9 (mixed)
DNA: B6 DNA with C44T, A57C
modifications: 2'-OH purines, deoxy pyrimidines
B9: the Kd in series [1] was 109 nM.

B10: ARC1370 (mixed)
mixed: GCGUGCAGUGCCUUCGGCCGTGCGGTGCCUCCGUCACGC
modifications: 2'-OMe at 1-4,8-18,20,22,27,28,30,33,34,36-39, rest deoxy; PS between 22 and 23; 3'-idT
Regarding B10, the Kd in series [3] was determined as 10.1 nM.

B11: ARC1381 (mixed)
mixed: B10 mixed
modifications: 2'-OMe at 1-4,8-18,20,22,27,28,30,33,34,36-39, rest deoxy; PS between 35 and 36; 3'-idT
For B11, in series [3], the Kd came to 8.7 nM.

B12: ARC1377 (mixed)
mixed: B10 mixed
modifications: 2'-OMe at 1-4,8-18,20,22,27,28,30,33,34,36-39, rest deoxy; PS between 30 and 31; 3'-idT
For the molecule B12, in series [3], the Kd was determined as 7.4 nM.

B13: ARC1371 (mixed)
mixed: B10 mixed
modifications: 2'-OMe at 1-4,8-18,20,22,27,28,30,33,34,36-39, rest deoxy; PS between 23 and 24; 3'-idT
On to B13, for which, in series [3], the Kd came to 8.4 nM.

B14: ARC1374 (mixed)
mixed: B10 mixed
modifications: 2'-OMe at 1-4,8-18,20,22,27,28,30,33,34,36-39, rest deoxy; PS between 26 and 27; 3'-idT
For the molecule B14, the Kd in series [3] turned out to be 9.5 nM.

B15: ARC1378 (mixed)
mixed: B10 mixed
modifications: 2'-OMe at 1-4,8-18,20,22,27,28,30,33,34,36-39, rest deoxy; PS between 31 and 32; 3'-idT
For B15, the Kd in series [3] was 9.1 nM.

B16: ARC1372 (mixed)
mixed: B10 mixed
modifications: 2'-OMe at 1-4,8-18,20,22,27,28,30,33,34,36-39, rest deoxy; PS between 24 and 25; 3'-idT
Consider B16, for which the Kd in series [3] stood at 23.5 nM.

B17: ARC1379 (mixed)
mixed: B10 mixed
modifications: 2'-OMe at 1-4,8-18,20,22,27,28,30,33,34,36-39, rest deoxy; PS between 32 and 33; 3'-idT
For B17, in series [3], the Kd turned out to be 10.4 nM.

B18: ARC1376 (mixed)
mixed: B10 mixed
modifications: 2'-OMe at 1-4,8-18,20,22,27,28,30,33,34,36-39, rest deoxy; PS between 29 and 30; 3'-idT
Turning to B18, the Kd in series [3] was found to be 4.4 nM.

B19: ARC1373 (mixed)
mixed: B10 mixed
modifications: 2'-OMe at 1-4,8-18,20,22,27,28,30,33,34,36-39, rest deoxy; PS between 25 and 26; 3'-idT
Regarding B19, the Kd in series [3] was determined as 7.1 nM.

B20: ARC1375 (mixed)
mixed: B10 mixed
modifications: 2'-OMe at 1-4,8-18,20,22,27,28,30,33,34,36-39, rest deoxy; PS between 28 and 29; 3'-idT
Take B20: the dissociation constant Kd in series [3] is 8.8 nM.

B21: ARC1380 (mixed)
mixed: B10 mixed
modifications: 2'-OMe at 1-4,8-18,20,22,27,28,30,33,34,36-39, rest deoxy; PS between 34 and 35; 3'-idT
On to B21, for which, in series [3], the Kd came to 12 nM.

B22: AMX201.H3 (ssRNA)
RNA: GGAGCGCACUCAGCCACUAACGGUUGAUCUCAGGACUAAAUAGUCAACAAGGAUGCGUUUCGACCUCUCUGCUAGC
modifications: 2'-F pyrimidines
On to B22, for which, in series [2], the Kd is 90 nM.

B23: AMX201.B1 (ssRNA)
RNA: GGAGCGCACUCAGCCACAGAGCCCUGAGUGUAUGAUCGCCUAGAUCUAUCGAUGCUUUUUCGACCUCUCUGCUAGC
modifications: 2'-F pyrimidines
The molecule B23 displayed a Kd in series [2] of 19 nM.

B24: AMX198.A10 (ssRNA)
RNA: GGAGCGCACUCAGCCACCAGUUAUGCUGGCUUUGGUCUUUGACUGUCUGAGUGUUCGUUUCGACCUCUCUGCUAGC
modifications: 2'-F pyrimidines
B24 gave a Kd in series [2] of 1860 nM.

B25: AMX205.H11 (mixed)
DNA: GGAGCGCACTCAGCCACGGCACGACGGTGATGGATTAGCGCGGTGTCGGTGGTGTCATTTCGACCTCTCTGCTAGC
modifications: 2'-OH purines, deoxy pyrimidines
Consider B25, for which the Kd in series [1] stood at 144 nM.

B26: AMX205.D11 (mixed)
DNA: B25 DNA with G33A
modifications: 2'-OH purines, deoxy pyrimidines
Regarding B26, the Kd in series [1] is 124 nM.

B27: AMX206.A10 (mixed)
DNA: B25 DNA with C22T, G33A
modifications: 2'-OH purines, deoxy pyrimidines
For the molecule B27, the Kd in series [1] came out at 111 nM.

B28: AMX206.D7 (mixed)
DNA: B25 DNA with G33A, C56T
modifications: 2'-OH purines, deoxy pyrimidines
Regarding B28, in series [1], the Kd stood at 187 nM.

B29: AMX198.G1 (ssRNA)
RNA: GGAGCGCACUCAGCCACAACACUAAUGGGGAAAGUUCAAGGAUUCUUGACCGGUGCGUUUCGACCUCUCUGCUAGC
modifications: 2'-F pyrimidines
In series [2], B29 returned a Kd of 45 nM.

B30: AMX198.E5 (ssRNA)
RNA: GGAGCGCACUCAGCCACUUCGACUUUCAUGUCUGAAGUCCCUGCAGUGCGAGAGACGUUUCGACCUCUCUGCUAGC
modifications: 2'-F pyrimidines
For B30, the Kd in series [2] stood at 172 nM.

B31: AMX198.C6 (ssRNA)
RNA: GGAGCGCACUCAGCCACGGUGGUCAGUCAGUGAUAUGAUUAAGUUCAGCUGUGGCUGUUUCGACCUCUCUGCUAGC
modifications: 2'-F pyrimidines
For the molecule B31, in series [2], the Kd stood at 249 nM.

B32: AMX206.D8 (mixed)
DNA: GGAGCGCACTCAGCCACGACGGTGATGGATTAGCGCGGTGGATCTTAACGTGCGAGTTTCGACCTCTCTGCTAGC
modifications: 2'-OH purines, deoxy pyrimidines
B32: the dissociation constant (Kd) in series [1] was found to be 370 nM.

B33: AMX205.H8 (mixed)
DNA: GGAGCGCACTCAGCCACAAACGGACGGTGATGGATTAACGCGGGTTTATGGCAAGGTTTCGACCTCTCTGCTAGC
modifications: 2'-OH purines, deoxy pyrimidines
Turning to B33, the Kd in series [1] is 788 nM.

B34: AMX205.H10 (mixed)
DNA: GGAGCGCACTCAGCCACTGTTGCCGACGGTGATGTATTAACGCGGGCAACGTTGGTGTTTCGACCTCTCTGCTAGC
modifications: 2'-OH purines, deoxy pyrimidines
Regarding B34, the Kd in series [1] is 397 nM.

B35: AMX205.F7 (ARC841) (mixed)
DNA: GGAGCGCACTCAGCCACACGACATTGGCGGGTTGTAATTACCACGCATGGCTGTTTGTTTCGACCTCTCTGCTAGC
modifications: 2'-OH purines, deoxy pyrimidines
Take B35: in series [1], the Kd is 1.5 nM.
